Experimental data reported in patent publication US12723255B2, “Herbicide tolerance genes and methods of use thereof” (priority 2014, dated 2026).
“And” between values parts separate entries of the source, which are not always exact repeats. Equal entries are not always repeated.

Tests used:
Assay type in all cases: in vivo
[1] = tested on: F1 hybrid maize plants; experiment: efficacy field trial for 2,4-D tolerance; details: scale 0 to 100, with CTP unless label says no CTP; for average injury rating, V4 Growth Stage, 8x 2,4-D / average injury rating, V8 Growth Stage, 8x 2,4-D: 8 lb ae/acre at VE-V2, V4, V8; for average injury rating, V4 Growth Stage, 16x 2,4-D / average injury rating, V8 Growth Stage, 16x 2,4-D: 16 lb ae/acre at VE-V2, V4, V8
Procedure: (§1) Separate trait efficacy field trials for quizalofop-P and 2,4-D were conducted at two locations cach with F1 hybrid transgenic plants produced by crossing an inbred plant containing maize event MON89034 with an R1 plant containing MON-HT55 (with a CTP), MON-HTI (with or without a CTP), MON-HT2 (with or without a CTP), MON-HT3 (with a CTP), MON-HT4 (with a CTP), MON-HT5 (with a CTP), MON-HT6 (with a CTP), or MON-HT7 (with a CTP). Transgenic F1 hybrid plants containing maize events NK603×MON89034 were used for comparison as a control.
In the efficacy field trial for 2,4-D tolerance, one of four herbicide treatments was used: (1) 2,4-D amine at 2 lb ac/acre (2×) plus 0.25% v/v non-ionic surfactant (NIS) applied to VE to V2 followed by V4 followed by V8; (2) 2,4-D amine at 4 lb ac/acre (4×) plus 0.25% v/v NIS applied to VE to V2 followed by V4 followed by V8; (3) 2,4-D amine at 8 lb ac/acre (8×) plus 0.25% v/v NIS applied to VE to V2 followed by V4 followed by V8 maize; or (4) 2,4-D amine at 16 lb ac/acre (16×) plus 0.25% v/v NIS applied to VE to V2 followed by V4 followed by V8. Plots were visually rated as above. Tables 14 and 15 show the average injury ratings after herbicide application at V4 or V8 growth stage, respectively.

[2] = tested on: F1 hybrid maize plants; experiment: efficacy field trial for quizalofop-P tolerance and clethodim sensitivity; details: scale 0 to 100; for average injury rating, V8 Growth Stage, 1x Clethodim: clethodim 0.25 lb ai/acre at V8, volunteer control
Procedure: as §1
In the efficacy field trial for quizalofop-P tolerance and clethodim sensitivity, one of four herbicide treatments was used: (1) quizalofop-P (Assure II) at 0.32 lb ai/acre (4×) plus 0.25% v/v non-ionic surfactant (NIS) applied at VE-V2 growth stage followed by the same at V4 growth stage followed by the same at V8 growth stage; (2) quizalofop-P at 0.64 lb ai/acre (8×) plus 0.25% v/v NIS applied at VE to V2 growth stage followed by the same at V4 growth stage followed by the same at V8 growth stage; (3) quizalofop-P at 1.28 lb ai/acre (16×) plus 0.25% v/v NIS applied at VE to V2 growth stage followed by the same at V4 growth stage followed by the same at V8growth stage; or (4) clethodim at 0.25 lb ai/acre (1×) plus 0.25% v/v NIS applied at V8 growth stage. Plots were visually rated 10-14 days after application for crop injury on a scale of 0 to 100with “0” being none and “100” being complete crop destruction. Tables 14 and 15 show the average injury ratings after herbicide application at V4 or V8 growth stage, respectively.

[3] = tested on: F1 hybrid maize plants; experiment: efficacy field trial with segregating F1 hybrid plants; details: for % Injury from V4 2,4-D / % Injury from V8 2,4-D: 2,4-D amine 2× at VE-V2 (plus quizalofop-P 0.5×), V4, V8; for % Injury from V4 Quizalofop / % Injury from V8 Quizalofop: quizalofop-P 2× at VE-V2, V4, V8
Procedure: Ten unique engineered proteins optimized for activity at higher temperatures were selected for maize transformation and analysis in plants. DNA constructs were produced for expressing these engineered proteins with codon usage optimized for monocot expression using methods known to those skilled in the art. Enhancers, promoters, leaders, introns, CTPs, and 3′UTRs were tested in various combinations with the engineered proteins in these DNA constructs. The DNA constructs were used to transform immature maize (LH244) embryos with these vectors using Agrobacterium tumifaciens and standard methods known in the art. Regenerated R0 transgenic plantlets were grown in the green house.
Transgenic R0 maize plants were screened by the application of quizalofop-P (2×) plus 2,4-D (2×) at 7 to 10 days following transplant into plugs (generally corresponding to V3-V4 growth stage). All constructs tested produced plants containing unique events that passed the RO screen. The R0 plants were selfed to generate R1 homozygous seed and the R0 was also used as the male to cross with inbred plants containing maize event MON89034 to generate segregating F1 hybrid seed for efficacy field trials.
An efficacy field trial was conducted with segregating F1 hybrid plants, with 50% hemizygous and 50% null for the transgene. Tolerance to quizalofop-P (2×) plus 2,4-D (2×) was assessed using two herbicide application regimens: (1) quizalofop-P (Assure II) at 0.16 lb ai/acre (2×) plus 0.25% v/v non-ionic surfactant (NIS) applied at VE-V2 growth stage followed by the same at V4 growth stage followed by the same at V8 growth stage and (2) 2,4-D amine at 2 lb ae/acre (2×) plus quizalofop-P at 0.04 lb ai/acre (0.5×) plus 0.25% v/v NIS applied at VE-V2 growth stage followed by 2,4-D amine at 2 lb ae/acre (2×) plus 0.25% v/v NIS applied at V4 growth stage followed by the same at V8 growth stage. The 50% of the plants that were null for transgene were removed by the first quizalofop-P application at VE-V2 growth stage. Plots were visually rated 10-14 days after application for crop injury on a scale of 0 to 100 with “0” being none and “100” being complete crop destruction. […] The percentage injury rating with 2× application of 2,4-D at V8 growth stage ranged from a high of 40% to a low of 0. Similarly, the percentage injury rating with 2× application of quizalofop-P at V8 growth stage ranged from a high of 90% to a low of 0. Variation in injury rating between plants expressing the same protein is likely due to variations in construct design or transgene insertion location.

[4] = 0.32 lb ai/acre at VE-V2, V4, V8, with CTP unless label says no CTP
[5] = 0.64 lb ai/acre at VE-V2, V4, V8, with CTP unless label says no CTP
[6] = 1.28 lb ai/acre at VE-V2, V4, V8, with CTP unless label says no CTP

| Molecule | average injury rating, V8 Growth Stage, 2x 2,4-D ([1]; 2 lb ae/acre at VE-V2, V4, V8) | average injury rating, V4 Growth Stage, 4x 2,4-D ([1]; 4 lb ae/acre at VE-V2, V4, V8) | average injury rating, V4 Growth Stage, 8x 2,4-D [1] | average injury rating, V8 Growth Stage, 8x 2,4-D [1] | average injury rating, V4 Growth Stage, 16x 2,4-D [1] | average injury rating, V8 Growth Stage, 16x 2,4-D [1] | average injury rating, V8 Growth Stage, 1x Clethodim [2] | % Injury from V4 2,4-D ([3]; CTP A) | % Injury from V8 2,4-D ([3]; CTP A) | % Injury from V4 Quizalofop ([3]; CTP A) | % Injury from V8 Quizalofop ([3]; CTP A) | further results |
| --- | --- | --- | --- | --- | --- | --- | --- | --- | --- | --- | --- | --- |
| MON-HT55: engineered oxygenase protein, amino acid sequence SEQ ID NO:11 (protein) MHAALSPLSQRFERIAVQPLTGVLGAEITGVDLREPLDDSTWNEILDAFHTYQVIYFPGQAITNEQHIAFSRRFGPVDPVPLLKSIEGYPEVQMIRREANESGRVIGENWHTDSTFLDAPPAAVVMYAKEIPPYGGDTLFTSMYTAWETLSPTMQATIEGLNVVHSATRVFGSLYQAQNRRFSNTSVKVMDVDAGDRETVHPLVVTHPETGRKGLYVNQVYCQRIEGMSEKESEPLLSFLFAHATKPEFTCRVRWQEGDVLVWDNLCTQHYAVPDYAGKFRYLTRTTVGGVRPAR | 15.0 and 12.5 and 16.3 and 14.4 and 11.3 | 31.3 and 22.5 and 41.3 and 23.1 and 30.0 | 45.0 and 53.8 and 43.8 and 50.0 and 58.8 and 48.8 | 33.8 and 36.3 and 39.4 and 30.0 and 35.0 | 61.3 and 63.8 and 66.3 and 55.0 and 53.8 and 52.5 | 57.5 and 52.5 and 55.0 and 56.9 and 47.5 | 94.5 and 93.3 | – | – | – | – | – |
| MON-HT9: engineered oxygenase protein, amino acid sequence SEQ ID NO:40 (protein) MHAALTPLTNKYRFIDVQPLTGVLGAEITGVDLREPLDDSTWNEILDAFHTYQVIYFPAQQITNEQHISFSRRFGPVDPVPLLKSIEGYPEVQMIRREANESGRILGDDWHTDSTFLDAPPAAVVMRAIEVPEYGGDTGFLSMYSAWDTLSDTMKATIEGLNVVHSATRVFGSLYQAQNWRFSNTSVKVMDVDAGDRETVHPLVVSHPVTGRRALYCNQVYCQRIEGMTDAESKCLLQFLYEHATKFDFTCRVRWKKDQVLVWDNLCTMHRAVPDYAGKFRYLTRTTVAGDRPAR | – | – | – | – | – | – | – | 20% | 40% | 5% | 5% | – |
| MON-HT10: engineered oxygenase protein, amino acid sequence SEQ ID NO:43 (protein) MHAALTPLTNKYRFIDVQPLCGVLGAEITGVDLREPLDDSTWNEILDAFHTYQVIYFPGQAITNEQHIAFSRRFGPVDPVPLLKSIEGYPEVQMIRREANESGRILGDDWHTDSTFLDAPPAAVVMRAIEVPEYGGDTGFLSMYSAWDTLSDTMKATIEGLNVVHSATRVFGSLYQAQNWRFSNTSVKVMDVDAGDRETVHPLVVSHPVTGRRALYCNQVYCQRIEGMTDAESKCLLQFLYEHATKFDFTCRVRWKKDQVLVWDNLCTMHLAVPDYDGKFRYLTRTTVAGDKPSR | – | – | – | – | – | – | – | 28% | 38.33% | 0% | 0% | – |
| MON-HT7: engineered oxygenase protein, amino acid sequence SEQ ID NO:34 (protein) MHAALTPLTNKYRFIDVQPLTGVLGAEITGVDLREPLDDSTWNEILDAFHTYQVIYFPGQAITNEQHIAFSRRFGPVDPVPLLKSIEGYPEVQMIRREANESGRVIGDDWHADSTFLDAPPAAVVMRAIEVPEYGGDTGFLSMYSAWETLSPTMQATIEGLNVVHSATKVFGSLYQATNWRFSNTSVKVMDVDAGDRETVHPLVVTHPVTGRRALYCNQVYCQKIQGMTDAESKSLLQFLYEHATKFDFTCRVRWKKDQVLVWDNLCTMHRSVPDYAGKFRYLTRTTVAGDKPSR | 2.0 | 1.3 | 5.8 | 9.3 | 12.5 | 20.0 | 93.3 | 21.6% | 16.6% | 31.2% | 5% | average injury rating, V4 Growth Stage, 2x 2,4-D ([1]; 2 lb ae/acre at VE-V2, V4, V8): 1.3; average injury rating, V8 Growth Stage, 4x 2,4-D ([1]; 4 lb ae/acre at VE-V2, V4, V8): 2.8; average injury rating, V4 Growth Stage, 4x Quizalofop [2, 4]: 0.8; average injury rating, V8 Growth Stage, 4x Quizalofop [2, 4]: 1.5; average injury rating, V4 Growth Stage, 8x Quizalofop [2, 5]: 1.3; average injury rating, V8 Growth Stage, 8x Quizalofop [2, 5]: 0.8; average injury rating, V4 Growth Stage, 16x Quizalofop [2, 6]: 3.3; average injury rating, V8 Growth Stage, 16x Quizalofop [2, 6]: 5.5 |
| MON-HT8: engineered oxygenase protein, amino acid sequence SEQ ID NO:37 (protein) MHAALTPLTNKYRFIDVQPLTGVLGAEITGVDLREPLDDSTWNEILDAFHTYQVIYFPGQAITNEQHIAFSRRFGPVDPVPILKSIEGYPEVQMIRREANESGRVIGDDWHTDSTFLDAPPAAVVMRAIEVPEYGGDTGFLSMYSAWETLSPTMQATIEGLNVVHSATKVFGSLYQATNWRFSNTSVKVMDVDAGDRETVHPLVVTHPVTGRRALYCNQVYCQKIQGMTDAESKSLLQFLYEHATKFDFTCRVRWKKDQVLVWDNLCTMHRSVPDYGNAFRYLTRTTVAGDKPSR | – | – | – | – | – | – | – | 10% | 10% | 1.25% | 1.25% | % Injury from V4 2,4-D ([3]; CTP B): 12.5%; % Injury from V8 2,4-D ([3]; CTP B): 11.67%; % Injury from V4 Quizalofop ([3]; CTP B): 9.17%; % Injury from V8 Quizalofop ([3]; CTP B): 8.33%; % Injury from V4 2,4-D ([3]; CTP C): 20%; % Injury from V8 2,4-D ([3]; CTP C): 21.25%; % Injury from V4 Quizalofop ([3]; CTP C): 30%; % Injury from V8 Quizalofop ([3]; CTP C): 32.5%; % Injury from V4 2,4-D ([3]; CTP None): 0%; % Injury from V8 2,4-D ([3]; CTP None): 0%; % Injury from V4 Quizalofop ([3]; CTP None): 85%; % Injury from V8 Quizalofop ([3]; CTP None): 90% |
